Assay results taken from patent US20230250157A1 (published 2023).
Numbering of substitutions follows the chain as printed.

Assays:
Experiment in all cases: ELISA
SARS-CoV-2 Beta RBD = SARS-CoV-2 Beta RBD (SARS-CoV-2 Beta)
[1] = target: SARS-CoV-2 Omicron BA.1 RBD (SARS-CoV-2 Omicron BA.1)
SARS-CoV-2 Delta RBD = SARS-CoV-2 Delta RBD (SARS-CoV-2 Delta)
[2] = target: SARS-CoV-2 Omicron BA.2 RBD (SARS-CoV-2 Omicron BA.2)

Measured: EC50

B1: M8a-11 (antibody, V domains shown)
VH: EVQLQQSGPELVKPGASVKIPCKASGYTFTDYNMDWVKQSHEKSLEWIGEIDPNNGDTIYNQKFKGKASLTVDKSSSTAYMELRSLTSEDTAVYYCAKRGYYGSSLWWYFDVWGTGTTVTVSS
VL: DIQMTQSSSSFSVSLGDRVTITCKASEDIYIRLAWYQQRPGNAPRLLISNAISLETGVPSRFSGSGSGKDYTLSITSLQTEDVATYYCQQYWSTPWTFGGGTKLEIK
> 10 µg/mL: all assays above

B2: M8a-7 (antibody, V domains shown)
VH: QAYLQQSGAEMVRPGASVKMSCKASGYTFNNYNMHWVKQTPSQGLEWIGGFYPGNDDTAYSQKFKGKATLTVDKSSSTAFMHLSSLTSEDSAVYFCARSLGRYYAMDYWGQGTSVTVSS
VL: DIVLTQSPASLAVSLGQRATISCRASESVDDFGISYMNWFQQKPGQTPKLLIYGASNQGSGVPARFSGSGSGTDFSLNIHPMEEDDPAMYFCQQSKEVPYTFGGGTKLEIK
> 10 µg/mL: all assays above

B3: M8a-15 (antibody, V domains shown)
VH: QVQLQQSGPELARPGASVKLSCRASGYTVTSFGLSWMKQRTGQGLEWIGEIYPTSKNTYYNDKFRTKATLTADKSSSTAYMELRSLTSEDSAVYFCVLYDYFDYWGQGTTLTVSS
VL: QIVLTQSPAIMSASPGEKVTISCSASSSVSYMYWYQQKTGSSPKPWIYRTSNLASGVPVRFSGSGSGTSYSLTISSMEAEDAATYYCQQYQSYPRTFGGGTKLEIK
> 10 µg/mL: all assays above

B4: M8a-29 (antibody, V domains shown)
VH: EVQLQQSVAELVRPGASVKLSCTASGFNIKNTYMHWVKQRPEQGLEWIGRIDPSIDHTRYAPKFQGKAVITAFTSSNTAYLQLSSLTSEDTAIYYCAREGGGNYPYYYAIDYWGQGTSVTVSS
VL: DIVMTQAAFSNPVTLGTSASISCRSTKSLLHSNGITYLYWYLQKPGQSPQLLIYQMSNLASGVPDRFSSSGSGTDFTLRISRVEAEDVGVYYCAQNLELPYTFGGGTKLEIK
> 10 µg/mL: all assays above

B5: M8a-25 (antibody, V domains shown)
VH: B4 VH
VL: B1 VL with S67F, Y71H
> 10 µg/mL: all assays above

B6: M8a-30 (antibody, V domains shown)
VH: QVHLQQSGPELVKPGASVKISCKASGYGFSSSWMNWVKQRPGKGLEWIGRIYPGDGDTNYNDKFQGKATLTADRSSSTAYMHLTSLTSADSAVYFCARSLLYSFDYWGQGTTLTVSS
VL: DVVVTQTPLSLPVSFGDQVSISCRSSQSLAGSYGHTYLSWYLHKSGQSPQLLIYGISNRFSGVPDRFSGSGSGTDFTLKISTIKPEDLGMYYCLQGTHQPLTFGAGTKLELK
> 10 µg/mL: SARS-CoV-2 Beta RBD | [1] | [2]
